Reference: US20100304465

System: delta-plasminogen
Sequence (chain, as listed by the source mutant): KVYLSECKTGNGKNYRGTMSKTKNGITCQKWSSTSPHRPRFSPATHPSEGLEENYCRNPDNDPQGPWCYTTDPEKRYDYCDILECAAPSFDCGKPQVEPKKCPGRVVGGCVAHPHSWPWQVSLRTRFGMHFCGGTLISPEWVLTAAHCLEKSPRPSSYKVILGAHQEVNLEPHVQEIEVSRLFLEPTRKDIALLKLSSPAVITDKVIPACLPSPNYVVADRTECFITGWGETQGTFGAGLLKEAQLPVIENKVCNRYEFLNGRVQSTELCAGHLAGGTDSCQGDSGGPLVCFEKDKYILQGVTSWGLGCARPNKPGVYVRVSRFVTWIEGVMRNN

urokinase
conversion of one-chain delta-plasminogen into two-chain delta-plasmin (reduced SDS-PAGE): delta-plasminogen indeed can be activated by all three plasminogen activators
